Experimental data as given in the supplement of paper PMC10567573.

B1: TEKT4 (parent)
chain: SEVEELNMSLTALREKLLEAEQSL

Variants of: B1
Experiment: protein stability index of a GFP-peptide fusion (GPS, HEK-293T) (PSI 1-6); higher = more stable
Conditions: c terminus: a fixed tail appended
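Further: lentivirally expressed fusions sorted by FACS into six bins by GFP to DsRed ratio, PSI derived from sequencing read proportions per bin multiplied by bin number.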

In order of rising protein stability index:
1. SEVEELNMVLTALREKLLEAEQSL  1.66
2. SEVEWLNMSLTALREKLLEAEQSL  1.79
3. SEVEELFMSLTALREKLLEAEQSL  1.89
4. SEVEILNMSLTALREKLLEAEQSL  1.95
5. SEVEELVMSLTALREKLLEAEQSL  1.95
6. SEVEYLNMSLTALREKLLEAEQSL  2.03
7. SEVEELWMSLTALREKLLEAEQSL  2.1
8. SEVEELNRSLTALREKLLEAEQSL  2.12
9. SEVEELNMILTALREKLLEAEQSL  2.14
10. SEVEMLNMSLTALREKLLEAEQSL  2.22
11. SEVEELNCSLTALREKLLEAEQSL  2.27
12. SEVEELNWSLTALREKLLEAEQSL  2.28
13. SEVEELNMFLTALREKLLEAEQSL  2.28
14. SEVEELNMLLTALREKLLEAEQSL  2.3
15. SEVEELLMSLTALREKLLEAEQSL  2.31
16. SEVEELMMSLTALREKLLEAEQSL  2.31
17. SEVEELNMYLTALREKLLEAEQSL  2.33
18. SEVERLNMSLTALREKLLEAEQSL  2.35
19. SEVEELAMSLTALREKLLEAEQSL  2.35
20. SEVEELNYSLTALREKLLEAEQSL  2.37
21. SEVEELNMMLTALREKLLEAEQSL  2.4
22. SEVEELNNSLTALREKLLEAEQSL  2.41
23. SEVELLNMSLTALREKLLEAEQSL  2.43
24. SEVEELHMSLTALREKLLEAEQSL  2.43
25. SEVEELCMSLTALREKLLEAEQSL  2.48
26. SEVETLNMSLTALREKLLEAEQSL  2.54
27. SEVEELEMSLTALREKLLEAEQSL  2.56
28. SEVEELNQSLTALREKLLEAEQSL  2.56
29. SEVEKLNMSLTALREKLLEAEQSL  2.6
30. SEVEEYNMSLTALREKLLEAEQSL  2.6
31. SEVEELNMCLTALREKLLEAEQSL  2.6
32. SEVEELNMGLTALREKLLEAEQSL  2.61
33. SEVENLNMSLTALREKLLEAEQSL  2.63
34. SEVEPLNMSLTALREKLLEAEQSL  2.63
35. SEVEELTMSLTALREKLLEAEQSL  2.63
36. SEVEVLNMSLTALREKLLEAEQSL  2.64
37. SEVEELQMSLTALREKLLEAEQSL  2.67
38. SEVEELNMTLTALREKLLEAEQSL  2.67
39. SEVEHLNMSLTALREKLLEAEQSL  2.72
40. SEVEQLNMSLTALREKLLEAEQSL  2.72
41. SEVEGLNMSLTALREKLLEAEQSL  2.73
42. SEVEEINMSLTALREKLLEAEQSL  2.76
43. SEVEELNKSLTALREKLLEAEQSL  2.77
44. SEVEELNSSLTALREKLLEAEQSL  2.81
45. SEVEELNMKLTALREKLLEAEQSL  2.82
46. SEVEELKMSLTALREKLLEAEQSL  2.84
47. SEVEELNMPLTALREKLLEAEQSL  2.85
48. SEVEELNMWLTALREKLLEAEQSL  2.85
49. SEVEERNMSLTALREKLLEAEQSL  2.87
50. SEVEELNASLTALREKLLEAEQSL  2.9
51. SEVEELGMSLTALREKLLEAEQSL  2.94
52. SEVEEWNMSLTALREKLLEAEQSL  2.95
53. SEVEELNMELTALREKLLEAEQSL  2.95
54. SEVEELNHSLTALREKLLEAEQSL  2.96
55. SEVEELSMSLTALREKLLEAEQSL  2.97
56. SEVEEFNMSLTALREKLLEAEQSL  3
57. SEVEELNMALTALREKLLEAEQSL  3
58. SEVEETNMSLTALREKLLEAEQSL  3.02
59. SEVEELNFSLTALREKLLEAEQSL  3.02
60. SEVESLNMSLTALREKLLEAEQSL  3.06
61. SEVEELNMNLTALREKLLEAEQSL  3.06
62. SEVEELIMSLTALREKLLEAEQSL  3.09
63. SEVEELNMRLTALREKLLEAEQSL  3.13
64. SEVEELNMSCTALREKLLEAEQSL  3.15
65. SEVEELNISLTALREKLLEAEQSL  3.17
66. SEVEELDMSLTALREKLLEAEQSL  3.24
67. SEVEELNTSLTALREKLLEAEQSL  3.25
68. SEVEELNMHLTALREKLLEAEQSL  3.28
69. SEVEELNESLTALREKLLEAEQSL  3.29
70. SEVEEHNMSLTALREKLLEAEQSL  3.31
71. SEVEELNLSLTALREKLLEAEQSL  3.36
72. SEVEELPMSLTALREKLLEAEQSL  3.42
73. SEVEELYMSLTALREKLLEAEQSL  3.42
74. SEVEEMNMSLTALREKLLEAEQSL  3.47
75. SEVEELNDSLTALREKLLEAEQSL  3.5
76. SEVEEQNMSLTALREKLLEAEQSL  3.51
77. SEVEELNMSETALREKLLEAEQSL  3.55
78. SEVEELNMDLTALREKLLEAEQSL  3.57
79. SEVEEVNMSLTALREKLLEAEQSL  3.58
80. SEVEECNMSLTALREKLLEAEQSL  3.71
81. SEVEESNMSLTALREKLLEAEQSL  3.71
82. SEVEEKNMSLTALREKLLEAEQSL  3.75
83. SEVEELNMSATALREKLLEAEQSL  3.75
84. SEVEELNVSLTALREKLLEAEQSL  3.77
85. SEVEEANMSLTALREKLLEAEQSL  3.81
86. SEVEENNMSLTALREKLLEAEQSL  3.89
87. SEVEELRMSLTALREKLLEAEQSL  3.92
88. SEVEEGNMSLTALREKLLEAEQSL  3.95
89. SEVEEPNMSLTALREKLLEAEQSL  3.99
90. SEVEELNPSLTALREKLLEAEQSL  3.99
91. SEVEELNMSDTALREKLLEAEQSL  4.03
92. SEVEELNGSLTALREKLLEAEQSL  4.32
93. SEVEEENMSLTALREKLLEAEQSL  4.33
94. SEVEEDNMSLTALREKLLEAEQSL  4.41
